# Molecular target: PUUV SP-mEGFP-Gc∆CT (Gc devoid of the cytoplasmic tail, labelled with mEGFP) (Puumala orthohantavirus (PUUV), strain Sotkamo/V-2969/81)
# Assay: Number and Brightness (N&B) fluorescence fluctuation microscopy
substance,measurement,value
"PUUV SP-mEGFP-Gc∆CT (Gc devoid of the cytoplasmic tail, labelled with mEGFP) (domain or fragment)",average multimerization,1.4
same,fraction of monomers (assuming a monomer-dimer equilibrium),75 mol%

# — article PMC12298772
